Measurements: PMC2819637
“And” between values parts separate entries of the source, which are not always exact repeats. Equal values may be shown once. Read-outs that look alike come from different tables or passages of the source.

What was measured:
[1] = target: phosphorylated monomeric PKR (pPKRm) (human) (UniProt P19525); test: AUC
PKR (Homo sapiens) [2] = target: PKR (Homo sapiens) (UniProt P19525); details: cited from earlier work
PKR (Homo sapiens) [3] = target: PKR (Homo sapiens) (UniProt P19525); test: analytical ultracentrifugation; details: cited from earlier work

Kd [1]	Substance	Kd (PKR (Homo sapiens) [2])	Kd (PKR (Homo sapiens) [3])
473 µM	phosphorylated monomeric PKR (pPKRm) (from UniProt P19525 1-551) (enzyme)	–	–
–	PKR (from UniProt P19525)	500 µM and 450 µM	0.95 µM
